B1: S. pneumoniae ParC breakage-reunion domain (ParC55, residues 1-488) (domain or fragment, Streptococcus pneumoniae, UniProt P72525 1-488, looked up)
chain: MSNIQNMSLEDIMGERFGRYSKYIIQDRALPDIRDGLKPVQRRILYSMNKDSNTFDKSYRKSAKSVGNIMGNFHPHGDSSIYDAMVRMSQNWKNREILVEMHGNNGSMDGDPPAAMRYTEARLSEIAGYLLQDIEKKTVPFAWNFDDTEKEPTVLPAAFPNLLVNGSTGISAGYATDIPPHNLAEVIDAAVYMIDHPTAKIDKLMEFLPGPDFPTGAIIQGRDEIKKAYETGKGRVVVRSKTEIEKLKGGKEQIVIIEIPYEINKANLVKKIDDVRVNNKVAGIAEVRDESDRDGLRIAIELKKDANTELVLNYLFKYTDLQINYNFNMVAIDNFTPRQVGIVPILSSYIAHRREVILARSRFDKEKAEKRLHIVEGLIRVISILDEVIALIRASENKADAKENLKVSYDFTEEQAEAIVTLQLYRLTNTDVVVLQEEEAELREKIAMLAAIIGDERTMYNLMKKELREVKKKFATPRLSSLEDTAKA
modifications: Tyr 118 linked covalently to the 5' phosphate end of the cleaved DNA (in the cleaved complexes; not in the resealed complex)
notes: Topoisomerase IV subunit ParC, Streptococcus pneumoniae, breakage-reunion domain, residues 1-488; also called topoisomerase IV subunit ParC; source: E. coli, over-expressed, purified as described previously

How the values were obtained:
[1] = target: B1; assay: crystal structure; ParC55 and ParE30 (equimolar, 4 mg/ml) co-crystallised with the 34-bp E-site DNA (1:1:1.2) and quinazolinedione PD 0305970, 20 mM MgCl2, pH 7.0; 3.1 A; the same crystals back-soaked and soaked with levofloxacin (2.9 A), EDTA (3.3 A) or EDTA then Mg2+ (3.5 A); conditions: both partners purified
[2] = target: the molecule itself; assay: as above

Binder | binding result [1] | stoichiometry N [2]
S. pneumoniae ParE TOPRIM domain (ParE30, residues 404-647) (domain or fragment, Streptococcus pneumoniae, UniProt Q59961 404-647, looked up, Topoisomerase IV subunit ParE, Streptococcus pneumoniae, TOPRIM domain, residues 404-647; also called topoisomerase IV subunit ParE; source: E. coli, over-expressed, purified as described previously) KNKKDKGLLSGKLTPAQSKNPAKNELYLVEGDSAGGSAKQGRDRKFQAILPLRGKVVNTAKAKMADILKNEEINTMIYTIGAGVGADFSIEDANYDKIIIMTDADTDGAHIQTLLLTFFYRYMRPLVEAGHVYIALPPLYKMSKGKGKKEEVAYAWTDGELEELRKQFGKGATLQRYKGLGEMNADQLWETTMNPETRTLIRVTIEDLARAERRVNVLMGDKVEPRRKWIEDNVKFTLEETTVF | binds | –
B1 | – | 2
